Literature values in article PMC5764468.

Target: calmodulin (Homo sapiens) (UniProt P0DP23)

CyaA AC domain AC (from UniProt P0DKX7)
Kd: < 100 pM
